In article PMC11864811, “Human CST Stimulates Base Excision Repair to Prevent the Accumulation of Oxidative DNA Damage” (Journal of molecular biology, 2024):
Blank lines part the entries; values can stand above or below the binder they belong to.

How the values were obtained:
[1] = target: Recombinant human Pol β (6X-His tagged) (human, UniProt P06746 1-335); experiment: cell-based or functional assay
[2] = target: Recombinant human OGG1 (6X-His tagged) (human, UniProt O15527 1-345); experiment: cell-based or functional assay
Chain of Recombinant human OGG1 (6X-His tagged) (O15527 whole entry): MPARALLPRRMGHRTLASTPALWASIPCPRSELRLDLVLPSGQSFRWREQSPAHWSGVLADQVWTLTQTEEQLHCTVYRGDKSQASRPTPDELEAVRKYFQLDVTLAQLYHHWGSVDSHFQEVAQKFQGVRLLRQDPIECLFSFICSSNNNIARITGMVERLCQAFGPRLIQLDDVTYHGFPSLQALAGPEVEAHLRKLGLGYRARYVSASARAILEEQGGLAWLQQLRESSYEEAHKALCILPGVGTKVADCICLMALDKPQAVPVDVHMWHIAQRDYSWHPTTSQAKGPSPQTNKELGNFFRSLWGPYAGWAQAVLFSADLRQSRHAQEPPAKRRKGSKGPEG

Pol β DNA synthesis on a random sequence 66 nt gapped substrate, fold increase with purified CTC1 [1]: ~7 fold | Pol β dRP lyase activity, fold increase with purified CTC1 (250-1500 nM; value at the highest concentration) [1]: ~7.5 fold | Pol β strand displacement synthesis on a 6-nt gapped substrate, fold increase with purified CTC1 [1]: 3 fold | OGG1 lesion removal and phosphodiester cleavage on an 8-oxo-G substrate, fold increase with purified CTC1 (250-1500 nM; value at the highest concentration) [2]: 3.1 fold
B1: FLAG-CTC1 (natural protein, human, UniProt Q2NKJ3 1-1217, looked up)
chain: MAAGRAQVPSSEQAWLEDAQVFIQKTLCPAVKEPNVQLTPLVIDCVKTVWLSQGRNQGSTLPLSYSFVSVQDLKTHQRLPCCSHLSWSSSAYQAWAQEAGPNGNPLPREQLLLLGTLTDLSADLEQECRNGSLYVRDNTGVLSCELIDLDLSWLGHLFLFPRWSYLPPARWNSSGEGHLELWDAPVPVFPLTISPGPVTPIPVLYPESASCLLRLRNKLRGVQRNLAGSLVRLSALVKSKQKAYFILSLGRSHPAVTHVSIIVQVPAQLVWHRALRPGTAYVLTELRVSKIRGQRQHVWMTSQSSRLLLLKPECVQELELELEGPLLEADPKPLPMPSNSEDKKDPESLVRYSRLLSYSGAVTGVLNEPAGLYELDGQLGLCLAYQQFRGLRRVMRPGVCLQLQDVHLLQSVGGGTRRPVLAPCLRGAVLLQSFSRQKPGAHSSRQAYGASLYEQLVWERQLGLPLYLWATKALEELACKLCPHVLRHHQFLQHSSPGSPSLGLQLLAPTLDLLAPPGSPVRNAHNEILEEPHHCPLQKYTRLQTPSSFPTLATLKEEGQRKAWASFDPKALLPLPEASYLPSCQLNRRLAWSWLCLLPSAFCPAQVLLGVLVASSHKGCLQLRDQSGSLPCLLLAKHSQPLSDPRLIGCLVRAERFQLIVERDVRSSFPSWKELSMPGFIQKQQARVYVQFFLADALILPVPRPCLHSATPSTPQTDPTGPEGPHLGQSRLFLLCHKEALMKRNFCVPPGASPEVPKPALSFYVLGSWLGGTQRKEGTGWGLPEPQGNDDNDQKVHLIFFGSSVRWFEFLHPGQVYRLIAPGPATPMLFEKDGSSCISRRPLELAGCASCLTVQDNWTLELESSQDIQDVLDANKSLPESSLTDLLSDNFTDSLVSFSAEILSRTLCEPLVASLWMKLGNTGAMRRCVKLTVALETAECEFPPHLDVYIEDPHLPPSLGLLPGARVHFSQLEKRVSRSHNVYCCFRSSTYVQVLSFPPETTISIPLPHIYLAELLQGGQSPFQATASCHIVSVFSLQLFWVCAYCTSICRQGKCTRLGSTCPTQTAISQAIIRLLVEDGTAEAVVTCRNHHVAAALGLCPREWASLLDFVQVPGRVVLQFAGPGAQLESSARVDEPMTMFLWTLCTSPSVLRPIVLSFELERKPSKIVPLEPPRLQRFQCGELPFLTHVNPRLRLSCLSIRESEYSSSLGILASSC

Pol β DNA synthesis on a random sequence 66 nt gapped substrate, fold increase with the CST complex [1]: ~3 fold | Pol β dRP lyase activity, fold increase with the CST complex (7.5-45 nM; value at the highest concentration) [1]: ~10 fold
B2: Human CST complex (CTC1-STN1-TEN1) (complex)
chain 1: B1 chain
chain 2: MQPGSSRCEEETPSLLWGLDPVFLAFAKLYIRDILDMKESRQVPGVFLYNGHPIKQVDVLGTVIGVRERDAFYSYGVDDSTGVINCICWKKLNTESVSAAPSAARELSLTSQLKKLQETIEQKTKIEIGDTIRVRGSIRTYREEREIHATTYYKVDDPVWNIQIARMLELPTIYRKVYDQPFHSSALEKEEALSNPGALDLPSLTSLLSEKAKEFLMENRVQSFYQQELEMVESLLSLANQPVIHSASSDQVNFKKDTTSKAIHSIFKNAIQLLQEKGLVFQKDDGFDNLYYVTREDKDLHRKIHRIIQQDCQKPNHMEKGCHFLHILACARLSIRPGLSEAVLQQVLELLEDQSDIVSTMEHYYTAF
chain 3: MMLPKPGTYYLPWEVSAGQVPDGSTLRTFGRLCLYDMIQSRVTLMAQHGSDQHQVLVCTKLVEPFHAQVGSLYIVLGELQHQQDRGSVVKARVLTCVEGMNLPLLEQAIREQRLYKQERGGSQ

Pol β DNA synthesis on a random sequence 66 nt gapped substrate, fold increase with purified TEN1 [1]: ~3 fold | Pol β dRP lyase activity, fold increase with purified TEN1 (250-1500 nM; value at the highest concentration) [1]: 1.5 fold
B3: FLAG-TEN1 (natural protein)
chain: B2 chain 3

Pol β DNA synthesis on a random sequence 66 nt gapped substrate, fold increase with purified STN1 [1]: ~7 fold | Pol β dRP lyase activity, fold increase with purified STN1 (250-1500 nM; value at the highest concentration) [1]: 8 fold | Pol β strand displacement synthesis on a 6-nt gapped substrate, fold increase with purified STN1 [1]: 3 fold | OGG1 lesion removal and phosphodiester cleavage on an 8-oxo-G substrate, fold increase with purified STN1 (250-1500 nM; value at the highest concentration) [2]: 4.3 fold
B4: Myc-STN1 (natural protein, human, UniProt Q9H668 1-368, looked up)
chain: B2 chain 2
